Two substances from PMC7054364 can be followed below.

In the assay the target is FITC-labelled type I collagen (UniProt P02453).
Sequence of UniProt P02453 (P02453 23-1217, chain 1 of 2): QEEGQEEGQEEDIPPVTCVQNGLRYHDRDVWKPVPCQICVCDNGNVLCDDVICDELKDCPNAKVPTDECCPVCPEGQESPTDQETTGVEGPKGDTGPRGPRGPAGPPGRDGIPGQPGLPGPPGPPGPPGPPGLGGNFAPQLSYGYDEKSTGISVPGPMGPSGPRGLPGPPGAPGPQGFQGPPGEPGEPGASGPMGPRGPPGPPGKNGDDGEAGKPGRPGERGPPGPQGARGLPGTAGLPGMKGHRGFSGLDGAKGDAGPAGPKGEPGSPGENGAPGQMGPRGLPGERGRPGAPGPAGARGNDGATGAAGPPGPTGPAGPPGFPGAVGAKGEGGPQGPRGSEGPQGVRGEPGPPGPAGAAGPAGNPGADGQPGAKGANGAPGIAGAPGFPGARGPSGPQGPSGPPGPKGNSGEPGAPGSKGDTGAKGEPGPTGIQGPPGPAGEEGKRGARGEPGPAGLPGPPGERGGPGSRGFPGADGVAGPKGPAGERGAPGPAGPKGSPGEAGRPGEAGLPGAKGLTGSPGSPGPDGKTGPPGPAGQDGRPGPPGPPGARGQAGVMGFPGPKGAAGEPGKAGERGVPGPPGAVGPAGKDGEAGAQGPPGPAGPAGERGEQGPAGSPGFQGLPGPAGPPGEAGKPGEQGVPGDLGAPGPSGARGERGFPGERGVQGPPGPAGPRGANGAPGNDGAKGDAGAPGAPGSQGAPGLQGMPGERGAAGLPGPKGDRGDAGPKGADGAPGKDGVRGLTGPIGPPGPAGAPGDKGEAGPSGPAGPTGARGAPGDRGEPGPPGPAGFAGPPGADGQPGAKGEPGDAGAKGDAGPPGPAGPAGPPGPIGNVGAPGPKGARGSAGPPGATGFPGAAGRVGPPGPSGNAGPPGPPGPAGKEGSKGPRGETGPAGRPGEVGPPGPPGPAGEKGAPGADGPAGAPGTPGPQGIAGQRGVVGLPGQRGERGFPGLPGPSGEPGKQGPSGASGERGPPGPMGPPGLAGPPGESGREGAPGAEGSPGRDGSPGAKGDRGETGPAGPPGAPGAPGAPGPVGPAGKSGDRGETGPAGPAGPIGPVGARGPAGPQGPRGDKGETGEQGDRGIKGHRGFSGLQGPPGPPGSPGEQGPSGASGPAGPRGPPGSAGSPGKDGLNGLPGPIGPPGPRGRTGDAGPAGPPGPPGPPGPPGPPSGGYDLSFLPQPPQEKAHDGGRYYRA
Sequence of UniProt P02453 (P02465 80-1117, chain 2 of 2, further chain): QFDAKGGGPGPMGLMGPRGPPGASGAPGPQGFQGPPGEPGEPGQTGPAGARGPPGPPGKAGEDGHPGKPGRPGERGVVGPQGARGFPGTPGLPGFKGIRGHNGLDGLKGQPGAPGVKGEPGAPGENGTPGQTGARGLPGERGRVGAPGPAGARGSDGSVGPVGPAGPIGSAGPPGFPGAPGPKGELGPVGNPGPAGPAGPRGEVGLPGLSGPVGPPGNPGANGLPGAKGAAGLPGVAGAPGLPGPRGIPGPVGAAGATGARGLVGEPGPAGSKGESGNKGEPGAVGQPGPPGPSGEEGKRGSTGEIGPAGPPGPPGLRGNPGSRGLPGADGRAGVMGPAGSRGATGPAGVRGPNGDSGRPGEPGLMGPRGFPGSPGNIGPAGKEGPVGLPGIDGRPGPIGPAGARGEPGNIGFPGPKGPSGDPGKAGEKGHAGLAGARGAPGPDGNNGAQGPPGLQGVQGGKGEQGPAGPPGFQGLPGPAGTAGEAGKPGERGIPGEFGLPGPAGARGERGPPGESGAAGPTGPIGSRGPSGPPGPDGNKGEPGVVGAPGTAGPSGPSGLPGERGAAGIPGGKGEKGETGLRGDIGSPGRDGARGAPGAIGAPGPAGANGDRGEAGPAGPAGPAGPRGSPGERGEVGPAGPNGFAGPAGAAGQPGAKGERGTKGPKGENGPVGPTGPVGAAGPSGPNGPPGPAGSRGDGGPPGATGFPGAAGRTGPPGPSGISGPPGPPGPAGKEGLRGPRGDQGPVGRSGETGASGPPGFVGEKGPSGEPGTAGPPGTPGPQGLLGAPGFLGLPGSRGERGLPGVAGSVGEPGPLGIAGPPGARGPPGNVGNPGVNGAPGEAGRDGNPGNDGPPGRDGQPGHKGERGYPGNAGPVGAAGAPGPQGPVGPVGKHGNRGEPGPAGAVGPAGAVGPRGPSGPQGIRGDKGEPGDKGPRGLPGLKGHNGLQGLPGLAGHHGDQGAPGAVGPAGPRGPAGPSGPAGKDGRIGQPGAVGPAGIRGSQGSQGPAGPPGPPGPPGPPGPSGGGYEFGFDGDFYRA

As for “purified collagenase product from C. histolyticum”, the Km of hydrolysis of FITC-labelled type I collagen (Lineweaver-Burk plot; 50 mM Tris-HCl, 0.2 M NaCl, 5 mM CaCl2, pH 7.5, 30 °C) worked out at 0.00189 mM.

As for “recombinant 62-kDa collagenase from Grimontia hollisae (enzyme)”, the Km of hydrolysis of FITC-labelled type I collagen (Lineweaver-Burk plot; 50 mM Tris-HCl, 0.2 M NaCl, 5 mM CaCl2, pH 7.5, 30 °C) was found to be 0.00109 mM.
